# Experimental data published in patent US20200291128A1 (ABEXXA BIOLOGICS, published 2020).
# Biological target: T1, HLA-E*0103 (recombinant, refolded with peptide into monomer complexes)
# T1 construct: The paragraph names only the allele
# Test: peptide binding and peptide/HLA-E refold into monomer complexes
binder,measurement,value
YLLPAIVHI [peptide YLLPAIVHI from the protein RNA Helicase],binding result,binds
